Data: publication PMC5542595

Molecular target: Leptospira interrogans heme oxygenase, wild type, ferric heme complex (Leptospira interrogans)
Assay: cross-linking

Leptospira interrogans ferredoxin-NADP+ reductase, wild type (enzyme)
stoichiometry N: 1
